Measured values from paper PMC9408895.
Numbering of substitutions follows the chain as printed. In names and notes the source's numbering stands. One block for each binder: values may come before it.

Target: T1, senescence-suppressed protein phosphatase SSPP (His-SSPP)
T1 chain: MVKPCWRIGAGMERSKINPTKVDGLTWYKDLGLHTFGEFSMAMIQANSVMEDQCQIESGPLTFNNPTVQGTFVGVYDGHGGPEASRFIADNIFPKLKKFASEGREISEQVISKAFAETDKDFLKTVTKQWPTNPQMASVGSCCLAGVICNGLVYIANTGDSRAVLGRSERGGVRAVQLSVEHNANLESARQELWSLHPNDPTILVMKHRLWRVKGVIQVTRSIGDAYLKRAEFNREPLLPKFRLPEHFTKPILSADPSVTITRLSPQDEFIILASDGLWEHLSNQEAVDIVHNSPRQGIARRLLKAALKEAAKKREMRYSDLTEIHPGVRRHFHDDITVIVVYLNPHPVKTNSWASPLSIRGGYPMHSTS
Assay: in vitro pull-down (His-SSPP-bound Ni-NTA beads, anti-GST blot)
Conditions: chain shown with the change; 20% pull-down, 10% input loaded; parent: 1.00

B2: GST-AtSARK-CD, cytoplasmic domain of Arabidopsis thaliana senescence-associated receptor-like kinase AtSARK, wild type, Q8VYT3 S304A (protein)
chain: CWYRKKQRRLLILNLNDKQEEGLQGLGNLRSFTFRELHVYTDGFASKNILGAGGFGNVYRGKLGDGTMVAVKRLKDINGTSGDSQFRMELEMISLAVHKNLLRLIGYCATSGERLLVYPYMPNGSVASKLKSKPALDWNMRKRIAIGAARGLLYLHEQCDPKIIHRDVKAANILLDECFEAVVGDFGLAKLLNHADSHVTTAVRGTVGHIAPEYLSTGQSSEKTDVFGFGILLLELITGLRALEFGKTVSQKGAMLEWVRKLHEEMKVEELLDRELGTNYDKIEVGEMLQVALLCTQYLPAHRPKMSEVVLMLEGDGLAERWAASHNHSHFYHANISFKTISSLSTTSVSRLDAHCNDPTYQMFGSSAFDDDDDHQPLDSFAMELSGPR
ratio to parent: 1.08

B3: GST-AtSARK-CD, cytoplasmic domain of Arabidopsis thaliana senescence-associated receptor-like kinase AtSARK, wild type, Q8VYT3 S304D (protein)
chain: B2 chain with A45D
ratio to parent: 0.95

B5: GST-AtSARK-CD, cytoplasmic domain of Arabidopsis thaliana senescence-associated receptor-like kinase AtSARK, wild type, Q8VYT3 S384A (protein)
chain: B2 chain with A45S, S125A
ratio to parent: 0.23

B7: GST-AtSARK-CD, cytoplasmic domain of Arabidopsis thaliana senescence-associated receptor-like kinase AtSARK, wild type, Q8VYT3 T465D (protein)
chain: B2 chain with A45S, T206D
ratio to parent: 0.88

B8: GST-AtSARK-CD, cytoplasmic domain of Arabidopsis thaliana senescence-associated receptor-like kinase AtSARK, wild type, Q8VYT3 S384D (protein)
chain: B2 chain with A45S, S125D
ratio to parent: 1.04

B9: GST-AtSARK-CD, cytoplasmic domain of Arabidopsis thaliana senescence-associated receptor-like kinase AtSARK, wild type, Q8VYT3 T326A (protein)
chain: B2 chain with A45S, T67A
ratio to parent: 0.97

B11: GST-AtSARK-CD, cytoplasmic domain of Arabidopsis thaliana senescence-associated receptor-like kinase AtSARK, wild type, Q8VYT3 T326D (protein)
chain: B2 chain with A45S, T67D
ratio to parent: 0.84

B12: GST-AtSARK-CD, cytoplasmic domain of Arabidopsis thaliana senescence-associated receptor-like kinase AtSARK, wild type, Q8VYT3 T465A (protein)
chain: B2 chain with A45S, T206A
ratio to parent: 0.9

Results, then the binder that gave them:

ratio to parent: 1.16
B1: GST-AtSARK-CD, cytoplasmic domain of Arabidopsis thaliana senescence-associated receptor-like kinase AtSARK, wild type, Q8VYT3 Y413F (protein)
chain: B2 chain with A45S, Y154F

ratio to parent: 0.96
B4: GST-AtSARK-CD, cytoplasmic domain of Arabidopsis thaliana senescence-associated receptor-like kinase AtSARK, wild type, Q8VYT3 Y473F (protein)
chain: B2 chain with A45S, Y214F

ratio to parent: 0.12
B6: GST-AtSARK-CD, cytoplasmic domain of Arabidopsis thaliana senescence-associated receptor-like kinase AtSARK, wild type, Q8VYT3 Y413E (protein)
chain: B2 chain with A45S, Y154E

ratio to parent: 0.98
B10: GST-AtSARK-CD, cytoplasmic domain of Arabidopsis thaliana senescence-associated receptor-like kinase AtSARK, wild type, Q8VYT3 Y473E (protein)
chain: B2 chain with A45S, Y214E
